Data taken from patent US20260234245A1 (ELTHERA, published 2026).

Experiments:
[1] = target: T1, recombinant hexahistidine-tagged human CHL1 (human, UniProt O00533 25-1082, limits assumed); test: direct ELISA on plate-coated human CHL1-His, HRP goat anti-mouse detection
T1 construct: Hexahistidine-tagged; also called plate-coated human CHL1; close homolog of L1 (CHL1)
T1 sequence (looked up): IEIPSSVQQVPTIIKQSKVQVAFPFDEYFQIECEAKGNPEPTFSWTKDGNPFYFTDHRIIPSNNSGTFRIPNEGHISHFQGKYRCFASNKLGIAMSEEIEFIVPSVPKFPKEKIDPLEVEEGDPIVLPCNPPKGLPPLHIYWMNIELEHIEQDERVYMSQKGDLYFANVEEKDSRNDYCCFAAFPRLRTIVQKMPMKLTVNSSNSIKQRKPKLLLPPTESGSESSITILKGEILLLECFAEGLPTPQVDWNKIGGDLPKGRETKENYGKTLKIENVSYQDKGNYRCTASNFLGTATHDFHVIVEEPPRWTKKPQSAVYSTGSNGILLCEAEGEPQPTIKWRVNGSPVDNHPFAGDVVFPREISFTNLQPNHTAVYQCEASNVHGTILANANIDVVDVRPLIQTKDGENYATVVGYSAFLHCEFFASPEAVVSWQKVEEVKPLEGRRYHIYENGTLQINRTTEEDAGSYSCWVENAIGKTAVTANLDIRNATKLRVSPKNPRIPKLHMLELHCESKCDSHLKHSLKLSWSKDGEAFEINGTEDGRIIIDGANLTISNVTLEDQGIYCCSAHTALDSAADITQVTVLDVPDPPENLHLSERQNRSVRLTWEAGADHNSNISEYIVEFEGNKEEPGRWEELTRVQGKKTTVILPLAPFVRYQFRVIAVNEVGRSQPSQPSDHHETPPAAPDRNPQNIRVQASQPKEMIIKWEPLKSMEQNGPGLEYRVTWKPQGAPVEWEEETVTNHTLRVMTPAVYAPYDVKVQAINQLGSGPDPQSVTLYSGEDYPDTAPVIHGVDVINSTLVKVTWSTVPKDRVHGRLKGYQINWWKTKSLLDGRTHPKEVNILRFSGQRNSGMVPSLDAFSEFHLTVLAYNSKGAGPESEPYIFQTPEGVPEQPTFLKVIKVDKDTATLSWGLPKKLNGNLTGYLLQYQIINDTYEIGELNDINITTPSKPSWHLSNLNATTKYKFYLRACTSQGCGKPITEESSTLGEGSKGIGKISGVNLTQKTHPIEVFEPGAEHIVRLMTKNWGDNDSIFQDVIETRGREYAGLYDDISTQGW
Protocol: (§1) Recombinant human L1CAM-human Fc and human NrCAM-human Fc fusion proteins, as well as recombinant hexahistidine-tagged versions of human CHL1 and Neurofascin, respectively, were added to ELISA plates at a concentration of 1 μg/mL in 50 mM carbonate buffer pH 9.6 (100 μL per well). Plates were incubated overnight at 4° C., washed 5 times with PBS/0.05% Tween, and blocked by the addition of 200 μL per well PBS/0.05% Tween/1% Bovine serum albumin (BSA). […] As positive controls the same dilution series were prepared for commercial mouse antibodies directed against L1CAM (clone UJ127.11, NovusBio), human NrCAM (clone 308000, Creative Diagnostics), human CHL1 (clone 6E6E4, Sino Biological) and human Neurofascin (clone 727030, R&D systems). Plates were washed 5 times with PBS/0.05% Tween, and 100 μL per well of the antibody dilution series were added to the plates. After an incubation for 1 hour at room temperature, plates were washed again and 100 μL per well of a horse-radish peroxidase conjugated polyclonal goat anti-mouse antibody (diluted 1:1000 in PBS/0.05% Tween/1% BSA) was added. […] After an incubation of 8 minutes at room temperature, reactions were stopped by the addition of 50 μL per well 0.16 M H₂SO₄, and absorption at 450 nm was determined in a microplate reader.

[2] = target: T2, recombinant hexahistidine-tagged human Neurofascin (human, UniProt O94856 25-1217, limits assumed); test: direct ELISA on plate-coated human Neurofascin-His, HRP goat anti-mouse detection
T2 construct: Hexahistidine-tagged; also called plate-coated human Neurofascin
T2 sequence (looked up): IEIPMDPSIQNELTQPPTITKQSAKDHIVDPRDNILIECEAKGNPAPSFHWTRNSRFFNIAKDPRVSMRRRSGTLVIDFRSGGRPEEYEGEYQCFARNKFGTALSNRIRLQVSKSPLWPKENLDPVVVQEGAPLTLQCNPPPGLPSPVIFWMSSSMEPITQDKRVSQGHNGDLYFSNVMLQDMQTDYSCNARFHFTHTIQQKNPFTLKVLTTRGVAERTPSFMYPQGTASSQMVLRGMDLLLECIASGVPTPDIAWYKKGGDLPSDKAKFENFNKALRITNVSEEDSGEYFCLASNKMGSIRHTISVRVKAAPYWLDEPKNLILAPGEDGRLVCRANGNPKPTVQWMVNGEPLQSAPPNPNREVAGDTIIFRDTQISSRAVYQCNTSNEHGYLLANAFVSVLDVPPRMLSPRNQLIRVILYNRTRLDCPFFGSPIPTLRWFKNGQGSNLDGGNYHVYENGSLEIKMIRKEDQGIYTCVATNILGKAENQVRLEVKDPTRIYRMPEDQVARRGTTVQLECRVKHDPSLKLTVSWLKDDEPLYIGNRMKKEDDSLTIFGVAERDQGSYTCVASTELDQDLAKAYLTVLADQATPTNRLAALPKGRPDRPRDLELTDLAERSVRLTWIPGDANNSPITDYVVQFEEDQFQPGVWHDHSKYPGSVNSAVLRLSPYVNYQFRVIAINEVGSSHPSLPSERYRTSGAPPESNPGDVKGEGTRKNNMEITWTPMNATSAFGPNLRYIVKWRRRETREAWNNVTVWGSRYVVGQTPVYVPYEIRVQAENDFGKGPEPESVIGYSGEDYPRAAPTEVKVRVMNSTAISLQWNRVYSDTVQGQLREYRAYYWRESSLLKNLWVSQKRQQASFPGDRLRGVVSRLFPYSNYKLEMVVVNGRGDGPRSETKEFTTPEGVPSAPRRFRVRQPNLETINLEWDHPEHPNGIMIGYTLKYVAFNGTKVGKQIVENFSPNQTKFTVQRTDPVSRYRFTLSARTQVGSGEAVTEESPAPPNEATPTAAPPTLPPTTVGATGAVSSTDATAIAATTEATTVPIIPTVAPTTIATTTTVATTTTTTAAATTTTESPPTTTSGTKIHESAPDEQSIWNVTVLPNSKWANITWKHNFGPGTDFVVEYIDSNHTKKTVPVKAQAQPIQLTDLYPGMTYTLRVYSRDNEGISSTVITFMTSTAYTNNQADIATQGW
Protocol: as §1

[3] = target: T3, recombinant human NrCAM-human Fc fusion protein (human, UniProt Q92823 25-1167, limits assumed); test: direct ELISA on plate-coated human NrCAM (panel titled 'human NrCAM-His'; the text calls it an NrCAM-human Fc fusion), HRP goat anti-mouse detection
T3 construct: also called plate-coated human NrCAM; Neuronal cell adhesion molecule (NrCAM)
Protocol: as §1

Measured: binding result

T3 sequence (Q92823 25-1167 limits assumed): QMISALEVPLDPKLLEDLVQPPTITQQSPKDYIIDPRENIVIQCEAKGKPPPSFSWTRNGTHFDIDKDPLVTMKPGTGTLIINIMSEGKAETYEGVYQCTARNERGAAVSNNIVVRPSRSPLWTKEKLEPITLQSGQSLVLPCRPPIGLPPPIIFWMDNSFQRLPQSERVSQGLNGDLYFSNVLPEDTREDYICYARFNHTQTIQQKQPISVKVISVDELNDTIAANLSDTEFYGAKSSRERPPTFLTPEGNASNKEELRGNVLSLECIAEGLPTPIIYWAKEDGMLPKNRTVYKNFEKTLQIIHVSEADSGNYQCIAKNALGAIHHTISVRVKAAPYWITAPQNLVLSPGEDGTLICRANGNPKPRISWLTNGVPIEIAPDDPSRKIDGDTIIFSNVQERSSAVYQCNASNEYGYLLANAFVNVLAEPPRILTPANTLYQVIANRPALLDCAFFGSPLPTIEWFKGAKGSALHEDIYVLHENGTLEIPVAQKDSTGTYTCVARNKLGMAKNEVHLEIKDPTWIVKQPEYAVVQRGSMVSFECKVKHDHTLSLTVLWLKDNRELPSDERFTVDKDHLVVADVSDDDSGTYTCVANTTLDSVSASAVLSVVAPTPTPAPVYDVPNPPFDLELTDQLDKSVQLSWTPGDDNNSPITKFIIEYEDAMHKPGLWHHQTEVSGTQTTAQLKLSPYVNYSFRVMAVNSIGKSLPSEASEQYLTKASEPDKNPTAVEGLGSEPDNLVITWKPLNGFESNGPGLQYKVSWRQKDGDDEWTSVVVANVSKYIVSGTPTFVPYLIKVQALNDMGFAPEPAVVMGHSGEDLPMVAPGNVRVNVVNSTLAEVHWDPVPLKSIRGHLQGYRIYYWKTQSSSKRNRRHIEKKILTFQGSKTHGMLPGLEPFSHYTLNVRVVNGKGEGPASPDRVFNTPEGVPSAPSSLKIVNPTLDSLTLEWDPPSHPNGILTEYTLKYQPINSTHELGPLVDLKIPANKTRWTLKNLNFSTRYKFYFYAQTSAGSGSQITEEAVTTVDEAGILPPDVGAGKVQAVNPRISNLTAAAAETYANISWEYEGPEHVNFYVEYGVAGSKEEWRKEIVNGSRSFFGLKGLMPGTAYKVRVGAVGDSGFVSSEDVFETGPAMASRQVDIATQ

B1: OV549.20 mouse IgG2a (antibody, V domains shown)
VH: DVQLQESGPGLVKPSQSLSLTCTVTGYSITSDYAWNWIRQFPGNKVEWMGYISYSGSFSYHPSLKSRISITRDTSKNQFFLQLSSVTTEDTATYYCARSFSYGYGFAYWGQGTLVTVSS
VL: DIVMTQSHKFMSTSVGDRVNITCKASQDVSSAVAWYQQKPGQSPKLLIYSASYRYTGVPDHFTGSGSGTDFTFTISSVQAEDLAVYYCQQHYSTPWTFGGGTKLEIKR
modifications: N-glycosylation motif Asn-Ile-Thr in the variable region; glycosylated and non-glycosylated light chain forms present
notes: Recombinant mouse IgG2a expressed in CHO K1 cells; also called OV549.20 (murine); mAb OV549.20
no binding (tested: 1 µg/mL): [1] | [2] | [3]
